Results from the nanobody polyreactivity screen of Harvey et al. (2022).

assay: yeast display, Sf9 membrane polyspecificity reagent, FACS + sequencing; frameworks hold sequencing errors
How it was run: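 In a synthetic yeast display library (Saccharomyces cerevisiae BJ5465), nanobody expression was induced with galactose for 36–48 hours. FACS gates were set low and high (top ~1%) using anti-HA fluorescence for expression and streptavidin fluorescence for binding of the Sf9 membrane reagent. Each polyreactivity label is drawn from the gate of origin.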

Sequence | polyreactivity (PSR sort gate)
QVQLVESGGGLVQAGGSLRLSCAASGSTFTPYAMGWYRQAPGKDREFVAVITRSGTRTYYADSVKGRFTISRDNAKNTVYLQMNSLKPEDTAVSYCAADRHPYNRYDYYYWGQGTQVTVSS | high polyreactivity
QVQLVESGGGLVQAGGSLRLSCAASGSTFTQNTMGWYRQAPGKERELVAAISWSGTRTYYADSVKGRFTISRDNAKNTVYLQMNSLKPEDTAVYYCAARTHVPAEYDYWGQGTQVTVSS | high polyreactivity
QVQLVESGGGLVQAGGSLRLSCAASGSTFTQYAMGWYRQAPAKERELFAAISWGGGTTRYADSVKGRFTISRDNAKNTVYLQMNSLKPEDTAVYYCAKRVRTGSVGNFNYWGQGTQVTVSS | high polyreactivity
QVQLVESGGGLVQAGGSLRLSCAASGSTFTRNAMGWYRQAPGKERELVAAISGGGGGSTYYADSVKGRFTISRDNAKNTVYLQMNSLKPEDTAVYYCAARAGRYWAAYGYWGQGTQVTVSS | high polyreactivity
QVQLVESGGGLVQAGGSLRLSCAASGSTFTRYAMGWYRQAPGKERELVAAINWSGTSTYYADSVKGRFTISRDNAKNTVYLQMNSLKPEDTAVYYCNKGYLVRPGDYWGQGTQVTVSS | high polyreactivity
QVQLVESGGGLVQAGGSLRLSCAASGSTFTSYAMGWYRQAPGKERELVAAISKSGGSTYYADSVKGRFTISRDNAKKTVYFQMNSLKPEDTAVYYCAARYNVRSFSTSSFDYWGQGTQVTVSS | low polyreactivity
QVQLVESGGGLVQAGGSLRLSCAASGSTFTSYAMGWYRQAPGKERELVAAITRNGGTTYYADSVKGRFTISRDNAKNTVYLQMNSLKPEDTAVYYCNAPHYYYITSDRRFDYWGQGTQVTVSS | low polyreactivity
QVQLVESGGGLVQAGGSLRLSCAASGSTFTSYVMGWYRQAPGKERELVAAISSSGTRTYYADSVKGRFTISRDNAKNTVYLQMNSLKPEDTSVYYCAARGGAPYRIFKDDYWGQATQVTVSS | high polyreactivity
QVQLVESGGGLVQAGGSLRLSCAASGSTFTTYAMGWYRQAPGKERELVAAISIRGGRTYYADSVKGRFTISRDNAKNTVYLQMNSLKPEDTAVYYCAAETYYAVSTGYDFDYWGQGTQVTVSS | high polyreactivity
QVQLVESGGGLVQAGGSLRLSCAASGSTFTTYAMGWYRQAPGKERELVAAISKSGGSTYYADSVKGRFTISRDNAKNTVYLQMNSLKPEDTAVYYCATSFRSTARKYGYWGQGTQVTVSS | high polyreactivity
QVQLVESGGGLVQAGGSLRLSCAASGSTFTTYAMGWYRQAPGKERELVAAITSGGTTNYADSVKGRFTISRDNAKNTVYLQMNSLKPEDTAVYYCAARNNVEYLTIYKPYSFGSDSWGQGTQVTVSS | low polyreactivity
QVQLVESGGGLVQAGGSLRLSCAASGSTFTWNAMGWYRQAPGKERELGASISGRGGSTYYADSVKGRFTISRDNAKNTVYLQMNSLKPEDTAVYYCAARGVSYHYPSGYDYWGQGTQVTVSS | high polyreactivity
QVQLVESGGGLVQAGGSLRLSCAASGSTFTWYAMGWYRQAPGKERELVAAISGSGGRTFYADSVKGRFTISRDNAKNTVYLQMNSLKPEDTAVYYCNAVRVSIPYIYTMDYWGQGTQVTVSS | high polyreactivity
QVQLVESGGGLVQAGGSLRLSCAASGSTFTYNAMGWYRQAPGTERELVAAISDGDGRTYYADSVKGRFTISRDNAKNTVYLQMNSLKPEDTAVYYCAAVDYAADYPYRNTEVYYWGQGTQVTVSS | low polyreactivity
QVQLVESGGGLVQAGGSLRLSCAASGSTFTYYAMGWYRQAPGKERELVAAINWDGGRTYYADSVKGRFTISRDNAKNTVYLQMNSLKPEDTAVYYCNAVGRYRSGFDYWGQGTQVTVSS | high polyreactivity
QVQLVESGGGLVQAGGSLRLSCAASGSTFTYYAMGWYRQAPGKERELVAAITGRGGRTYYADSVKGRFTISRDNAKNSVYLQMNSLKREDTAVYYCNTVGLNYGYQYSNGYWGQGSQVTVSS | high polyreactivity

Sequence | polyreactivity (PSR sort gate)
QVQLVESGGGLVQAGGSLRLSCAASGSTFTYYAMGWYRQAPGKERELVAAITSSGSTNYADSVKGRFTISRDNAKNTVYLQMNSLKPEDTAVYYCNAVSKWAIYDYWGQGTQVTVSS | high polyreactivity
QVQLVESGGGLVQAGGSLRLSCAASGSTFTYYAMGWYRQAPGKERELVAAITWSGGSTYYADSVKGRFTISRDNAKNTVYLQMNSLKPEDTAVYYCNVYSIWGTYDYWGQGTQVTVSS | low polyreactivity
QVQLVESGGGLVQAGGSLRLSCAASGSTFTYYAMGWYRQAPGKERELVADIDFSGTSTYYADSVKGRFTISRDNAKNTVYLQMNSLKPEDTAVYYCATDDYNWFDYDYWGQGTQVTVSS | low polyreactivity
QVQLVESGGGLVQAGGSLRLSCAASGSTFTYYTMGWYRQAPGKERELVAAISRTTGSTYYADSVKGRFTISRDNAKNTVYLQMNSLKPEDTAVYYCAADYYTRYQYGYWGQGTQVTVSS | low polyreactivity
QVQLVESGGGLVQAGGSLRLSCAASGSTFVANGMGWYRQAPGKERELVAVISRNGGTTYYADSVKGRFTISRDNAKNTVYLQMNSLKPEDTAVYYCNAKLPVFHYFWMDYWGQGTQVTVSS | high polyreactivity
QVQLVESGGGLVQAGGSLRLSCAASGSTFVANTMGWYRQAPGKERELGAAITSDGGSTSYADSVKGRFSISRDNAKNTVYLQMNSLKPEDTAVYHCAAEYGGSSAKYGYWGQGTQVTVSS | low polyreactivity
QVQLVESGGGLVQAGGSLRLSCAASGSTFVANVMGWYRQAPGKERELVATINSTSGSTYYADSVKGRFTISRDNAKNTVYLQMNSLKPEDTAVYYCNATHEGFELDYWGQGTQVTVSS | low polyreactivity
QVQLVESGGGLVQAGGSLRLSCAASGSTFVAYAMGWYRQAPGKERELVAAISASGVRTYYADSVKGRFTISRDNAKNTVYLQMNSLKPEDTAVYYCAATVFRKYRYGYWGQGTQVTVSS | high polyreactivity
QVQLVESGGGLVQAGGSLRLSCAASGSTFVDNAMGWYRQAPGKERELVAAITNSGSTYYADSVKGRFTISRDNAKNTVYLQMNSHKPEDTAVYYCAARSRVYWARSGYWGQGTQVTVSS | low polyreactivity
QVQLVESGGGLVQAGGSLRLSCAASGSTFVDYDMGWYRQAPGKERELVAAITYSGARTYYADSVKGRFTISRDNAKNTVYLQMNSLKPEDTAVYYCNADQRTASDQLEFDYWGQGTQVTVSS | low polyreactivity
QVQLVESGGGLVQAGGSLRLSCAASGSTFVFYAMGLYRQAPGKERELVADITSGGRTSYADSVKGRFTISRDNAKNTVYLQMNSLKPEDTAVYYCAALTRWYAWYDYWGQGTQVTVSS | high polyreactivity
QVQLVESGGGLVQAGGSLRLSCAASGSTFVFYAMGWYRQAPGKERELVAINSGGSTYYADSVKGRFTISRDNAKKTVYLQMNSLKPVDTAVYYCAKDRLRVWRFDYWGQGTQVTVSS | low polyreactivity
QVQLVESGGGLVQAGGSLRLSCAASGSTFVFYTMGWYRQAPGKEREFVASISGSGGSTYYADSVKGRFTISRDNAKNTVYLQMNSLKPEVSAVYYCAAGYPYYYWTPYYYWGQGTQVTLSS | high polyreactivity
QVQLVESGGGLVQAGGSLRLSCAASGSTFVGNAMGWYRQAPGKERELVAAITSGGSTNYADSVKGRFTISRDNAKNTVYLQMNSLKPEDTAVYYCAKRVSGSPPTAGSLSDSWGQGTQVTVSS | high polyreactivity
QVQLVESGGGLVQAGGSLRLSCAASGSTFVGNVMGWYRQAPGKERELVATISRSGGRTYYADSVKGRFTISRDNAKNTVYLQMNSLKPVDTAVYYCAAGFVYTTASRWGGRTRYDYWGQGTQVTVSS | high polyreactivity
QVQLVESGGGLVQAGGSLRLSCAASGSTFVGYAMGWYRQAPGKERELVAAISGGDSTYYADSVKGRFTLSRDNAQNTVYLQKNSLNPEDTALYYCAVGWTFDRRGYGYWGQGTQVTVSS | low polyreactivity
